One assay deals with T1, LZTR1-FLAG (human, UniProt Q8N653 1-840).
T1 construct: Expressed in HEK 293T, HeLa or U87 cells; used as cell lysate; also called LZTR1 wild type-FLAG; LZTR1 WT; not shown: FLAG tag at the C-terminus
T1 sequence (looked up): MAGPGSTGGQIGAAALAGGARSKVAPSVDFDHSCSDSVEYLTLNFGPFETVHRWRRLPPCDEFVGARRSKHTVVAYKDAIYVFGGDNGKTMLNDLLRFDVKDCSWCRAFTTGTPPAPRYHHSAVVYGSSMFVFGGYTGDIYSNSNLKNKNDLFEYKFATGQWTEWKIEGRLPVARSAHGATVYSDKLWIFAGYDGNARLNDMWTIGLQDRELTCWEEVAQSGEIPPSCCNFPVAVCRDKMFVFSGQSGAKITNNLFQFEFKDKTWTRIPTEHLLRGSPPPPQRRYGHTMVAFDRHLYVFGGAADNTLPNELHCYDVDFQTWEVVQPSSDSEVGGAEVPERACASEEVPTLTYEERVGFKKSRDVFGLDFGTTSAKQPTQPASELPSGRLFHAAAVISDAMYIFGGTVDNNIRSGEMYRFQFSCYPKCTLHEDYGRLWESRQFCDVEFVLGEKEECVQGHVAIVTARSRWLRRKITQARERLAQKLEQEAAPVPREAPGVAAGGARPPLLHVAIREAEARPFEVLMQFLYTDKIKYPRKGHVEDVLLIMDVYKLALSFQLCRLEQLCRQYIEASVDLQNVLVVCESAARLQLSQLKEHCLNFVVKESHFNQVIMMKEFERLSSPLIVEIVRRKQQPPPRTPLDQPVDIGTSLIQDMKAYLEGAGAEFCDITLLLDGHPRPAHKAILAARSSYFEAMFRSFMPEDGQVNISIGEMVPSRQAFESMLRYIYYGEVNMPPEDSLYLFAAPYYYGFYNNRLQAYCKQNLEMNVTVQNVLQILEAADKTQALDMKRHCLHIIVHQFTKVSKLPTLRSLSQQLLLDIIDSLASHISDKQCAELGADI
Briefly: IP/MS, LZTR1 wild type-FLAG, U87. The essentials:
(§1)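 Read-out: spectral counts from LC-MS/MS (Orbitrap Fusion) after MaxQuant identification. Variable modifications were Met oxidation, protein N-terminal acetylation and N/Q deamidation.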

Another assay deals with T2, LZTR1 R810W-FLAG (human, UniProt Q8N653 1-840).
T2 construct: Stably expressed in U87 cells by lentivirus; also called LZTR1-FLAG-R810W; LZTR1 RW; not shown: FLAG tag
T2 sequence (looked up): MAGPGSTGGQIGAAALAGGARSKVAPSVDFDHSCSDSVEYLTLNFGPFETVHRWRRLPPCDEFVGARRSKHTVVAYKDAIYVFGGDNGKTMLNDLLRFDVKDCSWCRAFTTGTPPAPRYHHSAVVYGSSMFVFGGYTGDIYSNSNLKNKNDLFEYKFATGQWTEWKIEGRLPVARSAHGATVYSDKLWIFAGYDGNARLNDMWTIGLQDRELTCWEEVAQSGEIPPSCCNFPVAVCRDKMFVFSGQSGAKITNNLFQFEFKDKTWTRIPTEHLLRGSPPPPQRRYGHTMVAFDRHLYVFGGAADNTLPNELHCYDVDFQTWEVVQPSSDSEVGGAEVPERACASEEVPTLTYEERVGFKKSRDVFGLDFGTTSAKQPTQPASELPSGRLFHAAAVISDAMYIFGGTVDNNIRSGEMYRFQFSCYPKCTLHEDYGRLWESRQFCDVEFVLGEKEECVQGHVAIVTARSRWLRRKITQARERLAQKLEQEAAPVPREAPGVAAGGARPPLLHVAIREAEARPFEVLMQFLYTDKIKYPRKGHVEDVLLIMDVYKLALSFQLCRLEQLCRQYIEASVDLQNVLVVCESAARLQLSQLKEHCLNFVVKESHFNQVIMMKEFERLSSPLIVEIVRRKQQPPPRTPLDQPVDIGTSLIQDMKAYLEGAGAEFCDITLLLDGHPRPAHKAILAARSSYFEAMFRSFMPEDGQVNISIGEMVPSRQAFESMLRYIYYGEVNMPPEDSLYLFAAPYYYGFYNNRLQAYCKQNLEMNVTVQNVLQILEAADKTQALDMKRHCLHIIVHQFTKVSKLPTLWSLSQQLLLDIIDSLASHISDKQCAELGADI
Briefly: IP/MS, LZTR1 R810W-FLAG, U87. The method, boiled down: as §1

B1: TBK1 (other, human, UniProt Q9UHD2 1-729, looked up)
chain: MQSTSNHLWLLSDILGQGATANVFRGRHKKTGDLFAIKVFNNISFLRPVDVQMREFEVLKKLNHKNIVKLFAIEEETTTRHKVLIMEFCPCGSLYTVLEEPSNAYGLPESEFLIVLRDVVGGMNHLRENGIVHRDIKPGNIMRVIGEDGQSVYKLTDFGAARELEDDEQFVSLYGTEEYLHPDMYERAVLRKDHQKKYGATVDLWSIGVTFYHAATGSLPFRPFEGPRRNKEVMYKIITGKPSGAISGVQKAENGPIDWSGDMPVSCSLSRGLQVLLTPVLANILEADQEKCWGFDQFFAETSDILHRMVIHVFSLQQMTAHKIYIHSYNTATIFHELVYKQTKIISSNQELIYEGRRLVLEPGRLAQHFPKTTEENPIFVVSREPLNTIGLIYEKISLPKVHPRYDLDGDASMAKAITGVVCYACRIASTLLLYQELMRKGIRWLIELIKDDYNETVHKKTEVVITLDFCIRNIEKTVKVYEKLMKINLEAAELGEISDIHTKLLRLSSSQGTIETSLQDIDSRLSPGGSLADAWAHQEGTHPKDRNVEKLQVLLNCMTEIYYQFKKDKAERRLAYNEEQIHKFDKQKLYYHATKAMTHFTDECVKKYEAFLNKSEEWIRKMLHLRKQLLSLTNQCFDIEEEVSKYQEYTNELQETLPQKMFTASSGIKHTMTPIYPSSNTLVEMTLGMKKLKEEMEGVVKELAENNHILERFGSLTMDGGLRNVDCL
Consider B1, for which the binding result with LZTR1-FLAG and with LZTR1 R810W-FLAG was “binds” each time.

B2: TRIM47 (other, human, UniProt Q96LD4 1-638, looked up)
chain: MDGSGPFSCPICLEPLREPVTLPCGHNFCLACLGALWPHRGASGAGGPGGAARCPLCQEPFPDGLQLRKNHTLSELLQLRQGSGPGSGPGPAPALAPEPSAPSALPSVPEPSAPCAPEPWPAGEEPVRCDACPEGAALPAALSCLSCLASFCPAHLGPHERSPALRGHRLVPPLRRLEESLCPRHLRPLERYCRAERVCLCEACAAQEHRGHELVPLEQERALQEAEQSKVLSAVEDRMDELGAGIAQSRRTVALIKSAAVAERERVSRLFADAAAALQGFQTQVLGFIEEGEAAMLGRSQGDLRRQEEQRSRLSRARQNLSQVPEADSVSFLQELLALRLALEDGCGPGPGPPRELSFTKSSQAVRAVRDMLAVACVNQWEQLRGPGGNEDGPQKLDSEADAEPQDLESTNLLESEAPRDYFLKFAYIVDLDSDTADKFLQLFGTKGVKRVLCPINYPLSPTRFTHCEQVLGEGALDRGTYYWEVEIIEGWVSMGVMAEDFSPQEPYDRGRLGRNAHSCCLQWNGRSFSVWFHGLEAPLPHPFSPTVGVCLEYADRALAFYAVRDGKMSLLRRLKASRPRRGGIPASPIDPFQSRLDSHFAGLFTHRLKPAFFLESVDAHLQIGPLKKSCISVLKRR
With B2, the binding result with LZTR1-FLAG and in the assay with LZTR1 R810W-FLAG was “binds” in each case.

B3: UBXN6 (other, human, UniProt Q9BZV1 1-441, looked up)
chain: MKKFFQEFKADIKFKSAGPGQKLKESVGEKAHKEKPNQPAPRPPRQGPTNEAQMAAAAALARLEQKQSRAWGPTSQDTIRNQVRKELQAEATVSGSPEAPGTNVVSEPREEGSAHLAVPGVYFTCPLTGATLRKDQRDACIKEAILLHFSTDPVAASIMKIYTFNKDQDRVKLGVDTIAKYLDNIHLHPEEEKYRKIKLQNKVFQERINCLEGTHEFFEAIGFQKVLLPAQDQEDPEEFYVLSETTLAQPQSLERHKEQLLAAEPVRAKLDRQRRVFQPSPLASQFELPGDFFNLTAEEIKREQRLRSEAVERLSVLRTKAMREKEEQRGLRKYNYTLLRVRLPDGCLLQGTFYARERLGAVYGFVREALQSDWLPFELLASGGQKLSEDENLALNECGLVPSALLTFSWDMAVLEDIKAAGAEPDSILKPELLSAIEKLL
As to B3, the binding result in the assay with LZTR1-FLAG and with LZTR1 R810W-FLAG was “binds” in each case.

B4: TELO2 (other, human, UniProt Q9Y4R8 1-837, looked up)
chain: MEPAPSEVRLAVREAIHALSSSEDGGHIFCTLESLKRYLGEMEPPALPREKEEFASAHFSPVLRCLASRLSPAWLELLPHGRLEELWASFFLEGPADQAFLVLMETIEGAAGPSFRLMKMARLLARFLREGRLAVLMEAQCRQQTQPGFILLRETLLGKVVALPDHLGNRLQQENLAEFFPQNYFRLLGEEVVRVLQAVVDSLQGGLDSSVSFVSQVLGKACVHGRQQEILGVLVPRLAALTQGSYLHQRVCWRLVEQVPDRAMEAVLTGLVEAALGPEVLSRLLGNLVVKNKKAQFVMTQKLLFLQSRLTTPMLQSLLGHLAMDSQRRPLLLQVLKELLETWGSSSAIRHTPLPQQRHVSKAVLICLAQLGEPELRDSRDELLASMMAGVKCRLDSSLPPVRRLGMIVAEVVSARIHPEGPPLKFQYEEDELSLELLALASPQPAGDGASEAGTSLVPATAEPPAETPAEIVDGGVPQAQLAGSDSDLDSDDEFVPYDMSGDRELKSSKAPAYVRDCVEALTTSEDIERWEAALRALEGLVYRSPTATREVSVELAKVLLHLEEKTCVVGFAGLRQRALVAVTVTDPAPVADYLTSQFYALNYSLRQRMDILDVLTLAAQELSRPGCLGRTPQPGSPSPNTPCLPEAAVSQPGSAVASDWRVVVEERIRSKTQRLSKGGPRQGPAGSPSRFNSVAGHFFFPLLQRFDRPLVTFDLLGEDQLVLGRLAHTLGALMCLAVNTTVAVAMGKALLEFVWALRFHIDAYVRQGLLSAVSSVLLSLPAARLLEDLMDELLEARSWLADVAEKDPDEDCRTLALRALLLLQRLKNRLLPPASP
As to B4, the binding result with LZTR1-FLAG and with LZTR1 R810W-FLAG was “binds” throughout.

B5: TRAPPC12 (other, human, UniProt Q8WVT3 1-735, looked up)
chain: MEDAGGGEETPAPEAPHPPQLAPPEEQGLLFQEETIDLGGDEFGSEENETASEGSSPLADKLNEHMMESVLISDSPNSEGDAGDLGRVRDEAEPGGEGDPGPEPAGTPSPSGEADGDCAPEDAAPSSGGAPRQDAAREVPGSEAARPEQEPPVAEPVPVCTIFSQRAPPASGDGFEPQMVKSPSFGGASEASARTPPQVVQPSPSLSTFFGDTAASHSLASDFFDSFTTSAFISVSNPGAGSPAPASPPPLAVPGTEGRPEPVAMRGPQAAAPPASPEPFAHIQAVFAGSDDPFATALSMSEMDRRNDAWLPGEATRGVLRAVATQQRGAVFVDKENLTMPGLRFDNIQGDAVKDLMLRFLGEKAAAKRQVLNADSVEQSFVGLKQLISCRNWRAAVDLCGRLLTAHGQGYGKSGLLTSHTTDSLQLWFVRLALLVKLGLFQNAEMEFEPFGNLDQPDLYYEYYPHVYPGRRGSMVPFSMRILHAELQQYLGNPQESLDRLHKVKTVCSKILANLEQGLAEDGGMSSVTQEGRQASIRLWRSRLGRVMYSMANCLLLMKDYVLAVEAYHSVIKYYPEQEPQLLSGIGRISLQIGDIKTAEKYFQDVEKVTQKLDGLQGKIMVLMNSAFLHLGQNNFAEAHRFFTEILRMDPRNAVANNNAAVCLLYLGKLKDSLRQLEAMVQQDPRHYLHESVLFNLTTMYELESSRSMQKKQALLEAVAGKEGDSFNTQCLKLA
As for B5, the binding result in the assay with LZTR1-FLAG and with LZTR1 R810W-FLAG was “binds” throughout.

(Values after patent publication US20250262210A1 (TRUSTEES OF COLUMBIA UNIVERSITY IN THE CITY OF NEW YORK, published 2025).)
